Results taken from PMC12221741, “WT EGFR and the oncogenic mutant EGFR (L858R) employ distinct mechanisms for export from the endoplasmic reticulum, a process critical for their activation” (The Journal of Biological Chemistry, 2025).
No end group written: not given here.

Biological target: T1, His-tagged SAR1A^(Δ2–17, H79G) (human, UniProt Q9NR31 1-198, Δ2–17 | H79G)
T1 construct: SAR1A, human, GTPase-defective H79G, N-terminal helix (residues 2-17) deleted; also called SAR1A^(Δ2–17, H79G)-His; His-tagged SAR1A(H79G) deleted of its N-terminal helix; source: purified, as described previously
Assay: pull-down; peptide-binding assay: polyR peptide coupled through its C-terminal cysteine to thiopyridone-Sepharose 6B beads (5 nmol peptide); 2 μg purified His-tagged SAR1A preincubated with 500 μM GTPγS; HK buffer (100 mM KCl, 20 mM Hepes, pH 7.2), 1 h at 4 °C; immunoblot
Details: both partners purified

T1 sequence (Q9NR31 other isoform, or with tags, fused parts or gaps Δ2–17 | H79G | Δ2–17 | H79G | H79G H79G): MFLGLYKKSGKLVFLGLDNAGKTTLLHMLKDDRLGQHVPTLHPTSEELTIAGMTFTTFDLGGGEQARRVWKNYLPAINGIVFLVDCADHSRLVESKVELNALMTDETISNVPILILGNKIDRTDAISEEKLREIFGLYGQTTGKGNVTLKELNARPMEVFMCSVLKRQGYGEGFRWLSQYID

B1: synthetic polyR peptide of EGFR (RRRHIVRKRTLRRC) (peptide)
peptide: RRRHIVRKRTLRRC(Sepharose 6B)
notes: EGFR, juxtamembrane region of the cytosolic domain, amino acid number 669-681; added C-terminal cysteine residue used for coupling to the beads; also called polyR peptides; source: synthetic peptide, bought: GenScript
**Q.** Does B1 bind?
**A.** Result: binds
